According to patent publication US20120264231A1, “ASSAY FOR ORAI CALCIUM CHANNEL REGULATORS” (IMMUNE DISEASE INSTITUTE, INC., priority 2009, published 2012):

Biological target: ORAI1 (Homo sapiens, UniProt Q96D31)
Assay: Cameleon D3 cpV/D4 cpV intravesicular Ca^2+ assay, sec6-4 vesicles with ORAI1
Assay type: biochemical
Parameters: the ORAI functional fragment is ORAI1 (65-301), ORAI1 (65-87), or full length ORAI1; made in house; host or cells: S. cerevisiae NY17 (sec6-4), isolated secretory vesicles, vector pBEVY-GU
Protocol: In complementary measurements, vesicular Ca^2+ was monitored directly by coexpressing ORAI1 with the Ca^2+ sensor D3 cpV or D4 cpV53 fused to the α-mating factor secretion signal to target the sensor to the vesicles. Vesicles that had incorporated ORAI1 were isolated from sec6-4 yeast incubated at the restrictive temperature and were diluted into assay buffer.
Vesicles carrying ORAI 1 were isolated from S cerevisiae strain NY1 7 according to a standard protocol (Coury, L. A., et al., Methods Enzymol 306, 169-186 (1999); Nakamoto, R. K., et al., J Biol Chem 266, 7940-7949 (1991)). Efflux of Ca^2+ elicited by STIM1^CT fragments was detected by suspending the vesicles in a buffer containing Fura-2 as principal Ca^2+ buffer, and monitoring the Fura-2 fluorescence excitation spectrum (Meyer, T., et al., Biochemistry 29, 32-37 (1990)). As a complementary approach, ORAI 1 was coexpressed with a Ca^2+ sensor cameleon D3 cpV or cameleon D4 cpV53 that was targeted to the vesicles, and changes in intravesicular [Ca^2+] were detected as changes in FRET between CFP and YFP of the sensor.
The yeast expression vector pBEVY-GU60 allows for simultaneous expression of two transgenes by means of the bidirectional GAL1-10 promoter. The FRET-based calcium sensors D3 cpV and D4 cpV53 were fused at the N-terminus with the S. cerevisiae α-mating factor secretion signal (Bitter, G. A., et al., Proc Natl Acad Sci USA 81, 5330-5334 (1984)), which directs proteins into the secretory pathway, and introduced into pBEVY-GU in the following way. Vector pPIC9 (Invitrogen) served as template for PCR amplification of the α-mating factor secretion signal (5′ primer: […] (SEQ ID NO: 2); 3′ primer: […] (SEQ ID NO: 3)), introducing an EcoRI site at the 5′ end, and a sequence complementary to that encoding the N-terminus of the calcium sensor at the 3′ end. DNA encoding the N-terminal portion of the calcium sensor D3 cpV, comprising CFP, was amplified by PCR (5′ primer: […] (SEQ ID NO: 4); 3′ primer: […] (SEQ ID NO: 5)), introducing an SphI site followed by a stop codon and a NotI site at the 3′ end of the resulting DNA fragment. PCR-mediated fusion of the fragments representing the α-mating factor secretion signal and the sensor CFP fragment yielded αCFP, which was digested with EcoRI and NotI and subcloned into pSM703. […] Human ORAI1 was Myc-tagged at the N-terminus by PCR (5′ primer: […] (SEQ ID NO: 6); 3′ primer: […] TGGCTGCCGGGC (SEQ ID NO: 7)) and subcloned as an EcoRI-BamHI fragment into pSM703. A fragment containing Myc-ORAI1 was excised from the resulting plasmid by EcoRI digestion, blunt-ended with the Klenow fragment of DNA polymerase I, and cut with AvrII. […]

[1] = STIM 1 cytoplasmic fragments 2 μM

Sequence of ORAI1 (Q96D31 2-301): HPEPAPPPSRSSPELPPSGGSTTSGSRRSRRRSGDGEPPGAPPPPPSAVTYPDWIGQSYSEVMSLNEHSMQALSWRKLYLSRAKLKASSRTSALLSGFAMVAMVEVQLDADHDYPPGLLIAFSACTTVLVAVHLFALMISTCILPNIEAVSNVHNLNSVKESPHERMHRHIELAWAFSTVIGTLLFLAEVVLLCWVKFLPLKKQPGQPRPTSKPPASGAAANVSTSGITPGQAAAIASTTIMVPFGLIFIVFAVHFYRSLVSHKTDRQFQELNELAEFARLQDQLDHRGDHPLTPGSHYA

| Molecule | vesicular Ca^2+ (cameleon FRET signal) (ionomycin 20 μM) | fluorescence intensity ratio F528 nm/F475 nm (D3 cpV sensor, wildtype ORAI1, STIM^CT 2.6 μM, p<0.001) | vesicular Ca^2+ (cameleon FRET signal) [1] |
| --- | --- | --- | --- |
| C[C@H](CCC(=O)O)C[C@H](C)C[C@H](C)C(=O)/C=C(\O)[C@H](C)C[C@H](C)C/C=C/[C@@H](C)[C@@H](O)[C@@H](C)[C@@H](O)C[C@@H]1CC[C@@](C)([C@H]2CC[C@@](C)([C@@H](C)O)O2)O1 [ionomycin, reference compound] | depletion of vesicular Ca^2+ | – | – |
| STIM1^CT: cytoplasmic region of STIM1, mouse residues 233-685, His-tagged recombinant protein expressed in E coli | – | changes the ratio significantly | triggered substantial loss of vesicular Ca^2+ |
| STIM1 (233-498): truncated mouse STIM1 cytoplasmic fragment, residues 233-498, His-tagged recombinant protein | – | – | triggered substantial loss of vesicular Ca^2+ |
